experiment: soluble fraction after stress (log2 fold change); higher = more stays soluble; pooled small domains, quantitative proteomics; conditions: stress: 50 degC
Summary of the method: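 The stress applied to every library was 50°C. These custom libraries of small protein domains were pooled and measured at high throughput with quantitative proteomics as the read-out. Aggregation propensity is expressed as the base-two logarithm of the fold change in how much of each protein remains soluble. The higher the value, the more of that protein stays in solution.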

Row | Sequence | soluble fraction (log2)
1 | HMSSAVKRALAELPENWRMIVYYRVVEGLSYAEIAKVLDIPDGSVMSGLHRGKKMLRGLLLEYAQQEGYD | -1.72
2 | HMVAISNTSGLAGVAYWIQSNIPKGIDIRKDNPGIVTIKNWIDEEYRKGRTTTISEEEMFKLVREYMPEL | -1.77
3 | HMNRREFQFSEGSSNKFWSIELRDQSFIVHYGKIGTNGQAQEKTFATADAAKKEHDKLIAEKTKKGYVEVQ | -0.392
4 | HMESAESRVDLIGMIGEAITDLRPAGTAQFGEERIDVVSESEWITEGSTVKVVSAEGYRHVVRVME | -0.162
5 | HMEREKTYLMPDLIGRKAERVVPRLQASGFKVEDIRHVYYPGLEKGVIVRQSPPGGYPIQKRNLINLEVS | -0.333
6 | HMHHIDYKQLRRINPVAARRAVLDYLESTGGNITKTAQVFSINRSVVYDILKKQASGDLSDRLRIP | -1.32
7 | HMTAIWKTITATLTHDIATGKYAPGDRLPTEAQLAARFGVNRHTVRRAISDMNESGLTYSRRGAGVFVAQ | -2.59
8 | HMVQVRQPAGAGDLFAKGRLHLSTGTIHTVKPLEVDLPKGRLTVVTGVSGSGKTTLILESLLPALAAAAA | 0.482
9 | HMISRKIKELRLSHDLTQKDLADYLNLTPKMVSFYELGQRVPPSDIILKLAEKFHVSTDYLLGNEDRP | -0.0279
10 | HMNADKEALIAAAYRNSLIENFGTENVERYEERFNKWADKHDRQGMPMYPTIEKWMNEDNIA | 0.111
11 | HMSDPFSPTTTLKNRAKSVLSVDSFEDFKLFIKKMWQEKKEGVYQNPNVETWKDWDNISVKDAKILISLI | -0.474
12 | HMIKVAANESNRSDVLEIVRLFRVRVVDVNPESLTIEATGAEGKIDALLGLLEHYGVIELVRSGAVAVT | -0.435
13 | HMDPVILDINSVKALLGISNKADFMAELSRLVVTEGDKKMIIPLAKEVGIDNVAVYKRNEIENISNYK | -0.1
14 | HMESRMTYLQKTKLATENLDAKLIDHQQWVAEVLGEDYRGVYSDEYLRRAAKVFAIFVNNLDD | -2.18
15 | HMSVDAMDEANERKMAKTFNMIVLGGLLKIRPIVSIESVIKALRKTLPERHHHLIPMNEEAIHIGMDII | 0.0597
16 | HMSPSQFRSKSLLVEINFASRQMDGEILQGDYAGKRLSELTEAEVQELTAWLKQSDRESFVLLQAYLLRSG | -0.881
17 | HMTNTWNNIVERNDLFFKKFTNTPFNGKIETYWPNGNLKETGIITDGKKDNLWEYYYENGNPKEVEF | -0.397
18 | HMQVTGLTAENAHRVTMIREKGTDHPPVPFHFRKEHHGTGNYVHLYGNPEDRNELHSRDFKDWEAVAFK | 0.25
19 | HMDRQIQITVAENEAGQRLDAFLAAKIPDMSRSYIQKLIEDGLILVNGQSTKGKVKTYSGMNIEVYMPE | 0.166
20 | HMVQMNMLELQEEMQRDRSWIIKHLFQDEYFRRKIAKFSQFPINDSGKYLFHRKSMLKFLNDYAEEIVER | -2.56
21 | HMNRPQDLGEPYDGQFREHPEAWAFYAAQSPSYRRSASWWVLGAKQEVTRQRRLAALIDASAQGTRIPALT | -1.09
22 | HMEVPQKTLEILEPWRGRKGFLIPVLQAVQHEFGYVPKEAIETVSREMKMPTAEIYGVVTFYAQFH | -0.493
23 | HMFMPGTIIKQFRELRNYSQDYVSRKMGISQNAYSKIENNITQLTVTHVKQLSSILDVPIVELLR | -3.32
24 | HMGERMELTLDNPREAIPVLDAMGFANYQVVDKEHIHIFERLNESALVNMELAKAGIPVKGISITSE | 0.018
25 | HMGAYIPSYAPVDINAATHTVVRGDTVYNISKRYHVSQEDFRAWNGMADNTLSIGQVVKVKPAGYTAPK | -0.087
26 | HMGEIVVPDLIGKSLTEATRILSDSTLTVGKVNYQISSTLLPNTVLDQYPAPGNKLNSGNTVDLFITKE | -0.0436
27 | HMPTMVAQINEIVQAKLPGSGLKDYTIRLVESQRDGVVVWVNGTRYLGVDEVAEPQVQALLKEAVAEWERS | -0.132
28 | HMNDTVGMNIRRLRKERGMTQGDLADKAGIQRETISKYESNKLTPPSYNLESIEKALKVPAGTLAQ | 0.0652

Row | Sequence | soluble fraction (log2)
29 | HMIETLGDATFKRLKAMILDGTLEPGTRLSEKKFADHLGVSRTPVREAIGQLVSEGLAKRSAGSAPVVSS | 0.0372
30 | HMKEMTAKQIDMFSDKLSKLESFQSHYIADAGVSVTEYKQAIAAKLQDQFYVEAWGKYLADVGFT | -0.505
31 | HMNIMNINQALNVLNLKGTVSKEELAKAYKKMAIKYHPDRNPTGVEMMKVINSAYEFLKGLNLEEIKH | 0.256
32 | HMGPSEVTLDNFVGKNYTDVVNDTSYQFTFKKEEKSDQTHAAGIIIAQSPKKGIKVKSNSTVTLTVSTG | -0.0626
33 | HMEIDFDKINSIFNDANKLYEEGDYFEANNLYKNIVSSNIISKDLYYNLGLSYAKIGSNGYAILWYERALN | -0.189
34 | HMKKRDANSQGTRLILFYMLQRLHTEYKLQGFVTYNQRRSFREIYDAYHALGGNGFGTAMWEEVKELDLK | -1.43
35 | HMDPDARQDAEVWLLDFLSAGPRTAQEIFTAARVEGHTRVTVKRAKATAGIQSVKQDFDGPWVWVLPGSG | -0.491
36 | HMQASISVDEAKSIALNYAKFTADQVVYTKSELDYDDGRAEYEIEFYAGGKEYSFTIDAVSGTVLEMEI | -1.7
37 | HMQPETIEDATNLYLEAARATLQLIEQNNVIARDVKRLLEHLDNDMARIETLLAEMLSRRDHWLRHIH | -0.12
38 | HMGAARVTPLYNLRLREGPSTATARLDVVPRGTTLEVRAWDETGDWAQVEYRGQIGWIAAWLAEVEGEAP | -0.136
39 | HMSSLSGVRRTLLDSLGMPPDASDEELADRREELRGSLDTAPQARRKWIEQQLARIDAITALDASG | -0.035
40 | HMQTYNQLKRGMTEWIQAGQKQKAYELFAGVAGQLSLSSAAGKKQYNELVTILNRAGFGIPLE | -0.428
41 | HMFPASQPVPTDLNQIVRAGLEVFSGRLEGIDVRVSLEPELPRVNVDPEHFKRIVVNLVDNAAEAMQNS | -0.0549
42 | HMNVVDTGTDANYRVKISAVNLNMRLGPSTSYKSKGYITPGNYTIIKTSGDWGKVKETGYWVALKYTSKIN | -1.06
43 | HMNENNFIVAMRERLAQFIETSGTSQSRIAKELGVSKSTVSLFLGGTYGGNNQELARNLEQLLSMGAARR | -0.96
44 | HMQQNYREMHKVKKGETLFGIARRYEITVDQLIKANPDMNAVGYELKKGDYIFIPYPDGQKP | -0.13
45 | HMRERLPFGFAQSKKVVLLSTESDTPKVLSVNWPSLDLYAELKRVIGRAFLLEIVSEEEFQAQVSDAYQRD | -2.24
46 | HMGIDISAFSETALQVLRLQAAGYTAKEISEKLHITPRTVKYHASQNYRKLDAKNLVDAVQIAQALHI | -1.26
47 | HMTRTEYMAQLEKYLKKLPHKEFQEAITFFNEYFDEAGPEKETAIMEELGSPKEAASELITNILNRHI | -0.149
48 | HMETADREILLREIREIINERVDYNKDITDDEMKELVMNTVFERSRQQYMSIQDKQEIIQAIFNSMR | 0.126
49 | HMPELTASDEADLKALVGGDQGFEQMANWARSNLGEEEINRFDAVVDSNNKDAIHMAIQAMQARMNA | 0.0174
50 | HMGNIYKALLGKLEKQLGFLPEGTKLPPEQELAEKFGVSKPTLRRALAELAVRGIIVKQNGIGSVVAGS | -0.142
51 | HMLTNNYKNDKALRFAKNHGIHESNILKLVSLYENAPEKGFNAQSIAELLGITPRSASRILVKLLQHNLIR | -1.42
52 | HMTKEEFLDEIKKELGFMPYEEVIKAEKYFESYFNGSEADEKVIERFGSPKYAAQNYYRTHVAN | -0.0965
53 | HMESADEESNALMYDGLLAMRGKRYEVALEFFDALVKHDPDFAEGWNKRATVLYLLGRYERSIADIKQVLA | -0.0654
54 | HMDRSIGDIIAELRDLSAEQVERVLAHQRETGVRFGEAAVALGYASKEDVLFALSQQFHYPYAPEE | -0.146
55 | HMNNKVAVKSGYYFELFDKDEIPATLEKMKQKVKIDNIKYDLYQGTSLEDERKIDTMFGEKMGYSIDDYI | 0.0224

Source: the domain aggregation screens of Martell et al. (2025)
